Laboratory results taken from the supplement of paper PMC9112550, “Optimization of the antimicrobial peptide Bac7 by deep mutational scanning” (BMC Biology, 2022).

Test system: Escherichia coli TOP10
Assay: shrunken log2 fold change of peptide-encoding DNA abundance (4.5 h post-induction vs induction); higher = less antimicrobial activity (less host growth inhibition)
Details: time post-induction: 4.5 h; library: site-saturation at positions 5, 18, 19, 20
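Further: peptides expressed intracellularly from a pBAD plasmid library in pooled LB shake-flask culture, induced with 0.3% L-arabinose, DNA abundance read by NGS, three biological replicates, DESeq2 with apeglm shrinkage.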

| Sequence | shrunken log2 fold change |
| --- | --- |
| RRIRTRPPRLPRPRPRPSTMPRP | -0.669 |
| RRIRSRPPRLPRPRPRPNYSPRP | -0.401 |
| RRIRIRPPRLPRPRPRPNLTPRP | 0.0979 |
| RRIRLRPPRLPRPRPRPLCQPRP | -0.125 |
| RRIRTRPPRLPRPRPRPSYEPRP | -0.352 |
| RRIRMRPPRLPRPRPRPSNPPRP | 0.155 |
| RRIRIRPPRLPRPRPRPSMSPRP | -0.6 |
| RRIRNRPPRLPRPRPRPTDFPRP | -0.164 |
| RRIRNRPPRLPRPRPRPGPMPRP | -0.0257 |
| RRIRRRPPRLPRPRPRPQTSPRP | 0.24 |
| RRIRARPPRLPRPRPRPYGFPRP | 0.00293 |
| RRIRARPPRLPRPRPRPLNPPRP | -0.111 |
| RRIRARPPRLPRPRPRPEHEPRP | 0.00993 |
| RRIRMRPPRLPRPRPRPEDPPRP | 1.02 |
| RRIRSRPPRLPRPRPRPPFKPRP | 0.0589 |
| RRIRKRPPRLPRPRPRPFVCPRP | 0.0717 |
| RRIRMRPPRLPRPRPRPIHYPRP | -0.689 |
| RRIRDRPPRLPRPRPRPCYRPRP | -0.417 |
| RRIRTRPPRLPRPRPRPNMGPRP | -0.0939 |
| RRIRARPPRLPRPRPRPSDRPRP | -0.0583 |
| RRIRQRPPRLPRPRPRPLGFPRP | 0.0916 |
| RRIRWRPPRLPRPRPRPVLTPRP | 0.147 |
| RRIRVRPPRLPRPRPRPPMDPRP | -0.291 |
| RRIRCRPPRLPRPRPRPRPSPRP | 0.695 |
| RRIRERPPRLPRPRPRPNIWPRP | -0.0737 |

| Sequence | shrunken log2 fold change |
| --- | --- |
| RRIRVRPPRLPRPRPRPRMKPRP | -0.167 |
| RRIRERPPRLPRPRPRPAGHPRP | 0.0849 |
| RRIRLRPPRLPRPRPRPVEIPRP | 0.0548 |
| RRIRLRPPRLPRPRPRPDQTPRP | 0.0206 |
| RRIRARPPRLPRPRPRPAPGPRP | 0.972 |
| RRIRPRPPRLPRPRPRPTKDPRP | -0.166 |
| RRIRVRPPRLPRPRPRPGCAPRP | 0.757 |
| RRIRDRPPRLPRPRPRPPASPRP | 0.513 |
| RRIRLRPPRLPRPRPRPMQGPRP | -0.0711 |
| RRIRSRPPRLPRPRPRPTETPRP | 0.0721 |
| RRIRARPPRLPRPRPRPVDDPRP | 0.469 |
| RRIRERPPRLPRPRPRPEARPRP | 0.164 |
| RRIRYRPPRLPRPRPRPPKAPRP | -0.0334 |
| RRIRRRPPRLPRPRPRPECWPRP | 0.958 |
| RRIRYRPPRLPRPRPRPFHTPRP | -0.128 |
| RRIRDRPPRLPRPRPRPNKKPRP | -0.117 |
| RRIRYRPPRLPRPRPRPKYAPRP | -0.532 |
| RRIRSRPPRLPRPRPRPYLTPRP | -0.429 |
| RRIRRRPPRLPRPRPRPESSPRP | 0.53 |
| RRIRSRPPRLPRPRPRPLEHPRP | 0.0173 |
| RRIRTRPPRLPRPRPRPSIMPRP | -0.827 |
| RRIRQRPPRLPRPRPRPIAQPRP | 0.0718 |
| RRIRHRPPRLPRPRPRPMFHPRP | -0.509 |
| RRIRGRPPRLPRPRPRPYAHPRP | 0.023 |
| RRIRERPPRLPRPRPRPAGRPRP | 0.0837 |
